Results on eleven molecules are retold here after US20230265151A1, “GIP/GLP1 CO-AGONIST COMPOUNDS” (priority 2020, published 2023).

For assay [1], the target named is T1, human GIP receptor (human, UniProt P48546 22-466).
T1 construct: whole, on cells; also called hGIPR; human glucose-dependent insulinotropic polypeptide receptor
T1 sequence (looked up): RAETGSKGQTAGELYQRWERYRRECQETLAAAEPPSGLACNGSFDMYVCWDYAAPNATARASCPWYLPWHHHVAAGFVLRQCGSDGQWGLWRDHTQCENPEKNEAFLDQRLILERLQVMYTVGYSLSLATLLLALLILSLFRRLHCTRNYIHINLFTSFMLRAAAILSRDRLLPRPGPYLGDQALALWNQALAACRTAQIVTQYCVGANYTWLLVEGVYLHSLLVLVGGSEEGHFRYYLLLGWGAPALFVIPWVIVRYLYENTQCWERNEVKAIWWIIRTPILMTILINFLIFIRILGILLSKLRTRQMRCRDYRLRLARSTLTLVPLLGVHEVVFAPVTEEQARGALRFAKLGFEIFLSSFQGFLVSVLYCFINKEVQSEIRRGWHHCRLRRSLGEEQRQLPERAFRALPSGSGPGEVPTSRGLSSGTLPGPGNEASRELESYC
Description: SPA competition vs [125I]-GIP, hGIPR membranes. As to the method: The binding buffer contains 25 mM HEPES, pH 7.4, 2.5 mM CaCl₂, 1 mM MgCl₂, 0.1% (w/v) bacitracin, 0.003% (w/v) TWEEN®-20, and Roche Complete™ Protease Inhibitors without EDTA. […] Plates are sealed and mixed on a plate shaker (setting 6) for 1 minute and read with a PerkinElmer Trilux MicroBeta® scintillation counter after 2.5 to 12 hours of incubation/settling time at room temperature.
(§1) Data are analyzed using four-parameter (curve maximum, curve minimum, IC₅₀, Hill slope) nonlinear regression routines (Genedata Screener, version 12.0.4, Genedata AG, Basal, Switzerland). […] Values for Kᵢ are reported as the geometric mean, with error expressed as the standard error of the mean (SEM) and n is equal to the number of independent replicates (determined in assays performed on different days). Geometric Means are calculated as follows: […]

In assay [2] the target is T2, human GLP-1 receptor (human, UniProt P43220 24-463).
T2 construct: whole, on cells; also called hGLP-1R; human glucagon-like peptide-1 receptor
The assay can be described thus: SPA competition vs [125I]-GLP-1, hGLP-1R membranes. As to the method:
The binding buffer contains 25 mM HEPES, pH 7.4, 2.5 mM CaCl₂, 1 mM MgCl₂, 0.1% (w/v) bacitracin, 0.003% (w/v) TWEEN®-20, and Roche Complete™ Protease Inhibitors without EDTA.
as §1

*1 amine or outer side, *2 acyl side, *3 side chain or, on linkers, in order; H or OH if unused. Where no end group is shown, it is not given here. Side-chain parts run from the residue outwards. [ ]: non-standard residue; d: D form. The star is where a group is joined. αMePhe(2-F) = C[C@](N)(Cc1ccccc1F)C(=O)O; γGlu = O=C(O)[C@H](CCC(=O)[*:2])N[*:1]; C14 diacid = O=C(O)CCCCCCCCCCCCC(=O)*; αMeY = C[C@](N)(Cc1ccc(O)cc1)C(=O)O; αMeL = CC(C)C[C@](C)(N)C(=O)O; Orn = NCCC[C@H](N)C(=O)O; AEEA = NCCOCCOCC(=O)O; Aib = CC(C)(N)C(=O)O

B1: Y-Aib-EGT-αMeF(2F)-TSD-aMeV-SI-αMeL-LD-Orn-K((2-[2-(2-Amino-ethoxy)-ethoxy]-acetyl)2-(γ-Glu)-CO-(CH2)12-CO2H)AQ-Aib-EFI-(D-Glu)-αMeY-LIEGGK((2-[2-(2-Amino-ethox … (peptide)
peptide: YXEGTXTSDXSIXLDXKAQXEFIXXLIEGGKSSGAPPPS
modifications: Aib2, αMeF(2F)6, αMeV10, αMeL13, Orn16, K17(Z1), Aib20, D-Glu24, αMeY25, K31(Z1), C-term NH2; Z1=AEEA2-(γ-Glu)-CO-(CH2)12-CO2H
For the molecule B1, the Ki (commonly a dissociation constant, usually derived from enzyme kinetics or from competition with a known ligand) in assay [1] is 0.0832 nM; in assay [2] it was 1.16 nM.

B2: Y-Aib-EGT-αMeF(2F)-TSD-4Pal-Aib-I-αMeL-LD-Orn-K((2-[2-(2-Amino-ethoxy)-ethoxy]-acetyl)-(γ-Glu)-CO-(CH2)12-CO2H)AQ-Aib-EFI-(D-Glu)-αMeY-LIK((2-[2-(2-Amino-ethoxy … (peptide)
peptide: YXEGTXTSDXXIXLDXKAQXEFIXXLIKGGPSSGAPPPS
modifications: Aib2, αMeF(2F)6, 4Pal10, Aib11, αMeL13, Orn16, K17(Z1), Aib20, D-Glu24, αMeY25, K28(Z1), C-term NH2; Z1=AEEA-(γ-Glu)-CO-(CH2)12-CO2H
B2: the inhibition constant (Ki) in assay [1] is 0.0747 nM; in assay [2], 2.17 nM.

B3: Y-Aib-EGT-αMeF(2F)-TSD-4Pal-SI-αMeL-LD-Orn-K((2-[2-(2-Amino-ethoxy)-ethoxy]-acetyl)2-(γ-Glu)-(10-(4-carboxyphenoxy)decanoyl))AQ-Aib-EFIK((2-[2-(2-Amino-ethoxy)- … (peptide)
peptide: YXEGTXTSDXSIXLDXKAQXEFIKXLIEGGPSSGAPPPS
modifications: Aib2, αMeF(2F)6, 4Pal10, αMeL13, Orn16, K17(Z1), Aib20, K24(Z1), αMeY25, C-term NH2; Z1=AEEA2-(γ-Glu)-(10-(4-carboxyphenoxy)decanoyl)
For the molecule B3, the Ki in assay [1] was 0.0314 nM; in assay [2] it was 0.777 nM.

B4: Y-Aib-EGT-αMeF(2F)-TSD-4Pal-SI-αMeL-LD-Orn-K((2-[2-(2-Amino-ethoxy)-ethoxy]-acetyl)2-(γ-Glu)-CO-(CH2)12-CO2H)AQ-Aib-E-3FPhe-I-(D-Glu)-αMeY-LIEGGK((2-[2-(2-Amino … (peptide)
peptide: YXEGTXTSDXSIXLDXKAQXEXIXXLIEGGKSSGAPPPS
modifications: Aib2, αMeF(2F)6, 4Pal10, αMeL13, Orn16, K17(Z1), Aib20, 3FPhe22, D-Glu24, αMeY25, K31(Z1), C-term NH2; Z1=AEEA2-(γ-Glu)-CO-(CH2)12-CO2H
Regarding B4, the results for the Ki in assay [1] and in assay [2] were 0.161 nM and 1.52 nM, respectively.

B5: Y-Aib-EGT-αMeF(2F)-TSD-4Pal-SI-αMeL-LD-Orn-K((2-[2-(2-Amino-ethoxy)-ethoxy]-acetyl)2-(γ-Glu)-CO-(CH2)12-CO2H)AQ-Aib-E-(3ClPhe)-I-(D-Glu)-αMeY-LIEGGK((2-[2-(2-Am … (peptide)
peptide: YXEGTXTSDXSIXLDXKAQXEXIXXLIEGGKSSGAPPPS
modifications: Aib2, αMeF(2F)6, 4Pal10, αMeL13, Orn16, K17(Z1), Aib20, 3ClPhe22, D-Glu24, αMeY25, K31(Z1), C-term NH2; Z1=AEEA2-(γ-Glu)-CO-(CH2)12-CO2H
For B5, the values for the Ki in assay [1] and in assay [2] were 0.132 nM and 1.59 nM, respectively.

B6: Y-Aib-EGT-αMeF(2F)-TSD-4Pal-Aib-I-αMeL-LD-Orn-QAQ-Aib-K((2-[2-(2-Amino-ethoxy)-ethoxy]-acetyl)2-(γ-Glu)-CO-(CH2)12-CO2H)FI-(D-Glu)-αMeY-LIK((2-[2-(2-Amino-ethox … (peptide)
peptide: YXEGTXTSDXXIXLDXQAQXKFIXXLIKGGPSSGAPPPS
modifications: Aib2, αMeF(2F)6, 4Pal10, Aib11, αMeL13, Orn16, Aib20, K21(Z1), D-Glu24, αMeY25, K28(Z1), C-term NH2; Z1=AEEA2-(γ-Glu)-CO-(CH2)12-CO2H
As for B6, the Ki in assay [1] was found to be 0.064 nM; in assay [2], 0.964 nM.

B7: Y-Aib-EGT-αMeF(2F)-TSDV-Aib-I-αMeL-LD-Orn-K((2-[2-(2-Amino-ethoxy)-ethoxy]-acetyl)2-(γ-Glu)-CO-(CH2)12-CO2H)AQ-Aib-EFI-(D-Glu)-αMeY-LIEGGK((2-[2-(2-Amino-ethoxy … (peptide)
peptide: Y[Aib]EGT[αMePhe(2-F)]TSDV[Aib]I[αMeL]LD[Orn]K([AEEA-AEEA-γGlu-C14 diacid])AQ[Aib]EFI[dE][αMeY]LIEGGK([AEEA-AEEA-γGlu-C14 diacid])SSGAPPPS-NH2
modifications: N-terminus assumed
SMILES: CC[C@H](C)[C@H](NC(=O)[C@H](CC(C)C)NC(=O)[C@](C)(Cc1ccc(O)cc1)NC(=O)[C@@H](CCC(=O)O)NC(=O)[C@@H](NC(=O)[C@H](Cc1ccccc1)NC(=O)[C@H](CCC(=O)O)NC(=O)C(C)(C)NC(=O)[C@H](CCC(N)=O)NC(=O)[C@H](C)NC(=O)[C@H](CCCCNC(=O)COCCOCCNC(=O)COCCOCCNC(=O)CC[C@H](NC(=O)CCCCCCCCCCCCC(=O)O)C(=O)O)NC(=O)[C@H](CCCN)NC(=O)[C@H](CC(=O)O)NC(=O)[C@H](CC(C)C)NC(=O)[C@](C)(CC(C)C)NC(=O)[C@@H](NC(=O)C(C)(C)NC(=O)[C@@H](NC(=O)[C@H](CC(=O)O)NC(=O)[C@H](CO)NC(=O)[C@@H](NC(=O)[C@](C)(Cc1ccccc1F)NC(=O)[C@@H](NC(=O)CNC(=O)[C@H](CCC(=O)O)NC(=O)C(C)(C)NC(=O)[C@@H](N)Cc1ccc(O)cc1)[C@@H](C)O)[C@@H](C)O)C(C)C)[C@@H](C)CC)[C@@H](C)CC)C(=O)N[C@@H](CCC(=O)O)C(=O)NCC(=O)NCC(=O)N[C@@H](CCCCNC(=O)COCCOCCNC(=O)COCCOCCNC(=O)CC[C@H](NC(=O)CCCCCCCCCCCCC(=O)O)C(=O)O)C(=O)N[C@@H](CO)C(=O)N[C@@H](CO)C(=O)NCC(=O)N[C@@H](C)C(=O)N1CCC[C@H]1C(=O)N1CCC[C@H]1C(=O)N1CCC[C@H]1C(=O)N[C@@H](CO)C(N)=O
B7: the results for the Ki in assay [1] and in assay [2] were 0.126 nM and 1.26 nM, respectively.

B8: Y-Aib-EGT-αMeF(2F)-TSDV-αMeS-I-αMeL-LD-Orn-K((2-[2-(2-Amino-ethoxy)-ethoxy]-acetyl)2-(γ-Glu)-CO-(CH2)12-CO2H)AQ-Aib-EFI-(D-Glu)-αMeY-LIEGGK((2-[2-(2-Amino-ethox … (peptide)
peptide: YXEGTXTSDVXIXLDXKAQXEFIXXLIEGGKSSGAPPPS
modifications: Aib2, αMeF(2F)6, αMeS11, αMeL13, Orn16, K17(Z1), Aib20, D-Glu24, αMeY25, K31(Z1), C-term NH2; Z1=AEEA2-(γ-Glu)-CO-(CH2)12-CO2H
As for B8, the figures for the Ki in assay [1] and in assay [2] were 0.161 nM and 1.17 nM, respectively.

B9: Y-Aib-EGT-αMeF(2F)-TSD-4Pal-SI-αMeL-LD-Orn-K((2-[2-(2-Amino-ethoxy)-ethoxy]-acetyl)2-(γ-Glu)-CO-(CH2)12-CO2H)AQ-Aib-EFI-(D-Glu)-αMeY-LIEGGP S SGAPPP … (peptide)
peptide: YXEGTXTSDXSIXLDXKAQXEFIXXLIEGGPSSGAPPPSK
modifications: Aib2, αMeF(2F)6, 4Pal10, αMeL13, Orn16, K17(Z1), Aib20, D-Glu24, αMeY25, K40(Z1), C-term NH2; Z1=AEEA2-(γ-Glu)-CO-(CH2)12-CO2H
As for B9, the inhibition constant Ki worked out at 0.0807 nM in assay [1] and 3.13 nM in assay [2].

B10: Y-Aib-EGT-αMeF(2F)-TSD-4Pal-Aib-I-αMeL-LD-Orn-K((2-[2-(2-Amino-ethoxy)-ethoxy]-acetyl)-(γ-Glu)-CO-(CH2)12-CO2H)AQ-Aib-EFI-(D-Glu)-αMeY-LIEGGPSSGAPPPSK((2-[2-(2- … (peptide)
peptide: YXEGTXTSDXXIXLDXKAQXEFIXXLIEGGPSSGAPPPSK
modifications: Aib2, αMeF(2F)6, 4Pal10, Aib11, αMeL13, Orn16, K17(Z1), Aib20, D-Glu24, αMeY25, K40(Z1), C-term NH2; Z1=AEEA-(γ-Glu)-CO-(CH2)12-CO2H
For B10, the inhibitory constant (Ki) in assay [1] was 0.091 nM; in assay [2], 2.07 nM.

B11: Y-Aib-EGT-αMeF(2F)-TSD-4Pal-Aib-I-αMeL-LD-Orn-QAQ-Aib-K((2-[2-(2-Amino-ethoxy)-ethoxy]-acetyl)2-(γ-Glu)-CO-(CH2)12-CO2H)FI-(D-Glu)-αMeY-LIEGGPSSGAPPPSK((2-[2-(2 … (peptide)
peptide: YXEGTXTSDXXIXLDXQAQXKFIXXLIEGGPSSGAPPPSK
modifications: Aib2, αMeF(2F)6, 4Pal10, Aib11, αMeL13, Orn16, Aib20, K21(Z1), D-Glu24, αMeY25, K40(Z1), C-term NH2; Z1=AEEA2-(γ-Glu)-CO-(CH2)12-CO2H
Regarding B11, the Ki in assay [1] was 0.0912 nM; in assay [2], 0.947 nM.
